Assay results from patent publication US20030203869A1.

molecular target: purified HLA-A2.1 molecules (human); assay: inhibition of binding of a labeled reference peptide to purified HLA-A2.1

Row | Substance | IC50 [nM]
1 | HIV Pol 476 (HIV pol 476-484) CTL epitope peptide […] (peptide; other documents disagree on this pair) | 192
2 | HBV Core 18 (HBV core 18-27) CTL epitope peptide […] (peptide; other documents disagree on this pair) | 3
3 | HBV Pol 551-A (native HBV pol 551-559) CTL epitope peptide […] (peptide; other documents disagree on this pair) | 200
